Data on one substance can be found in article PMC10875981.

The assay deals with FCγ receptor II (CD32), endogenous on K562 and U937 cells (human (endogenous in K562 and U937)) (UniProt P12318).
UniProt P12318, sequence (P12318 34-317): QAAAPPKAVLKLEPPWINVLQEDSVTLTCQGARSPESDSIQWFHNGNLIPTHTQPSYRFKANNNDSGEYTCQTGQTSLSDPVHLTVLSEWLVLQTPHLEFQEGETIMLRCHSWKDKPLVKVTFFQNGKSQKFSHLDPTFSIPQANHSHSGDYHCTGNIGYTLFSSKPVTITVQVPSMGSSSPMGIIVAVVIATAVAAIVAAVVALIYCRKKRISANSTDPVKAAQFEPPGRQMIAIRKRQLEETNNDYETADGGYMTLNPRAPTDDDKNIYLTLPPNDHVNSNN

“anti-Vα24Jα18 TCR mAb (6B11 mAb) (antibody)”: the CD107a^+ iNKT cells (treated with 6B11 mAb 50 ng/mL overnight, washed) after coculture with K562 cells, E/T 2:1, in the presence of the blocking anti-CD32 mAb (10 µg/mL) was found to be 1.8%; the CD107a^+ iNKT cells (treated with 6B11 mAb 50 ng/mL overnight, washed) after coculture with K562 cells, E/T 2:1, with isotype mIgG1 (10 µg/mL) came out at 52.8%; the CD107a^+ iNKT cells (treated with 6B11 mAb 50 ng/mL overnight, washed) after coculture with U937 cells, E/T 2:1, in the presence of the anti-CD32 mAb was 15.6%; the CD107a^+ iNKT cells (treated with 6B11 mAb 50 ng/mL overnight, washed) after coculture with U937 cells, E/T 2:1, with mIgG1 as a control worked out at 38.3%.
